Assay results as given in patent US20110262949A1.
Values belong to the binder of their own block, whether it stands above or below them.

Assays:
[1] = biological target: T1, wt β2 (E. coli class I ribonucleotide reductase subunit β2), P69924
T1 chain: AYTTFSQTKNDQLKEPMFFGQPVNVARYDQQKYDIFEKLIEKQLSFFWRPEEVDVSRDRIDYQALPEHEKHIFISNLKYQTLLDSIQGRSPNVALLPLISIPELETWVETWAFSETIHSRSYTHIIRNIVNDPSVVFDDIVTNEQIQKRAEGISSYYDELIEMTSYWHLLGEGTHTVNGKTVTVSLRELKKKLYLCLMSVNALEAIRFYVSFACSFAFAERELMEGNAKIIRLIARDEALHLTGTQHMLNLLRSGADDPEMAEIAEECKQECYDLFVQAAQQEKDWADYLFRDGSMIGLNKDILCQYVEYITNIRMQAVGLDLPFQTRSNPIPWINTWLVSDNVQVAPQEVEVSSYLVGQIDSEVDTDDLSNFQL

[2] = biological target: wt β2 (E. coli class I ribonucleotide reductase subunit β2) (E. coli) (UniProt P69924); test: cell-based or functional assay

B1: Y730NH2Y-α2 (E. coli class I ribonucleotide reductase subunit α2 with 3-aminotyrosine at residue 730) (protein)
chain: MNQNLLVTKRDGSTERINLDKIHRVLDWAAEGLHNVSISQVELRSHIQFYDGIKTSDIHETIIKAAADLISRDAPDYQYLAARLAIFHLRKKAYGQFEPPALYDHVVKMVEMGKYDNHLLEDYTEEEFKQMDTFIDHDRDMTFSYAAVKQLEGKYLVQNRVTGEIYESAQFLYILVAACLFSNYPRETRLQYVKRFYDAVSTFKISLPTPIMSGVRTPTRQFSSCVLIECGDSLDSINATSSAIVKYVSQRAGIGINAGRIRALGSPIRGGEAFHTGCIPFYKHFQTAVKSCSQGGVRGGAATLFYPMWHLEVESLLVLKNNRGVEGNRVRHMDYGVQINKLMYTRLLKGEDITLFSPSDVPGLYDAFFADQEEFERLYTKYEKDDSIRKQRVKAVELFSLMMQERASTGRIYIQNVDHCNTHSPFDPAIAPVRQSNLCLEIALPTKPLNDVNDENGEIALCTLSAFNLGAINNLDELEELAILAVRALDALLDYQDYPIPAAKRGAMGRRTLGIGVINFAYYLAKHGKRYSDGSANNLTHKTFEAIQYYLLKASNELAKEQGACPWFNETTYAKGILPIDTYKKDLDTIANEPLHYDWEALRESIKTHGLRNSTLSALMPSETSSQISNATNGIEPPRGYVSIKASKDGILRQVVPDYEHLHDAYELLWEMPGNDGYLQLVGIMQKFIDQSISANTNYDPSRFPSGKVPMQQLLKDLLTAYKFGVKTLYYQNTRDGAEDAQDDLVPSIQDDGCESGACKI
- 1st Phase kobs (SF UV-vis, NH2Y• formation / Y122• loss, with CDP/ATP) [1]: 12.8 ± 0.8, 20 ± 1
- rate constant of NH2Y. formation at 325 nm, fast phase [1]: 13.6 ± 0.1 s⁻¹
- rate constant of NH2Y. formation at 325 nm, slow phase [1]: 2.5 ± 0.1 s⁻¹
- rate constant of Y122. loss at 410 nm, fast phase [1]: 12.0 ± 0.1 s⁻¹
- rate constant of Y122. loss at 410 nm, slow phase [1]: 2.4 ± 0.1 s⁻¹
- 2nd Phase kobs (SF UV-vis, NH2Y• formation / Y122• loss, with CDP/ATP) ([1]; in 1/s): 2.5 ± 0.1, 19 ± 1

- 1st Phase Ampl (% of total initial Y122• trapped) [2]: 24%
- 2nd Phase Ampl (% of total initial Y122• trapped) [2]: 11%
- EPR spin quantitation at 10 s with CDP/ATP: share of remaining spin in NH2Y731. [2]: 45%
- [NH2Y•] at 20 s in the reaction with β2 and N3ADP/dGTP (EPR) [2]: 7.1 µM
- total initial Y122. consumed at 2 s [2]: 35%
B2: Y731NH2Y-α2 (E. coli class I ribonucleotide reductase subunit α2 with 3-aminotyrosine at residue 731) (enzyme, UniProt P00452 1-761, looked up)
chain: B1 chain
modifications: 3-aminotyrosine (NH2Y) at position 731 in place of Tyr (E. coli RNR numbering)

- 1st Phase Ampl (% of total initial Y122• trapped) [2]: 20%
- 2nd Phase Ampl (% of total initial Y122• trapped) [2]: 19%
- EPR spin quantitation at 10 s with CDP/ATP: share of remaining spin in the new signal (NH2Y730.) [2]: 53%
- [NH2Y•] at 20 s in the reaction with β2 and N3ADP/dGTP (EPR) [2]: 7.6 µM
- total initial Y122. consumed at 2 s [2]: 39%
B3: Y730NH2Y-α2 (E. coli class I ribonucleotide reductase subunit α2 with 3-aminotyrosine at residue 730) (enzyme, UniProt P00452 1-761, looked up)
chain: B1 chain
modifications: 3-aminotyrosine (NH2Y) at position 730 in place of Tyr (E. coli RNR numbering)
